B1: TMEM192 (parent)
chain: ILGKVILWILHLLLECYIQYHHSK

Variants of: B1
Assay: protein stability index of a GFP-peptide fusion (GPS, HEK-293T) (PSI 1-6); higher = more stable
Conditions: c terminus: a fixed tail appended
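Further: lentivirally expressed fusions sorted by FACS into six bins by GFP to DsRed ratio, PSI derived from sequencing read proportions per bin multiplied by bin number.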

Variant | protein stability index
ILGKVILWILHLLLECRIQYHHSK [Y17R] | 2.2
ILGKVILWILHLLLECAIQYHHSK [Y17A] | 2.48
ILGKVILWILHLLLECTIQYHHSK [Y17T] | 1.81
ILGKVILWILHLLLECHIQYHHSK [Y17H] | 3.22
IFGKVILWILHLLLECYIQYHHSK [L2F] | 2.86
IQGKVILWILHLLLECYIQYHHSK [L2Q] | 2.41
IEGKVILWILHLLLECYIQYHHSK [L2E] | 2.32
ILGMVILWILHLLLECYIQYHHSK [K4M] | 3.11
ILGIVILWILHLLLECYIQYHHSK [K4I] | 2.81
ILGNVILWILHLLLECYIQYHHSK [K4N] | 2.98
ILGKVILWPLHLLLECYIQYHHSK [I9P] | 3.29
ILGKVILWTLHLLLECYIQYHHSK [I9T] | 4.05
ILGKVILWCLHLLLECYIQYHHSK [I9C] | 2.61
ILGKVILWMLHLLLECYIQYHHSK [I9M] | 2.58
ILGKVILWQLHLLLECYIQYHHSK [I9Q] | 2.8
TLGKVILWILHLLLECYIQYHHSK [I1T] | 3.49
LLGKVILWILHLLLECYIQYHHSK [I1L] | 3.4
QLGKVILWILHLLLECYIQYHHSK [I1Q] | 2.5
ILGKVILPILHLLLECYIQYHHSK [W8P] | 2.6
ILGKVILEILHLLLECYIQYHHSK [W8E] | 2.47
ILGKVILLILHLLLECYIQYHHSK [W8L] | 2.26
ILGKVILTILHLLLECYIQYHHSK [W8T] | 3.65
ILGKVILWILHLLLEQYIQYHHSK [C16Q] | 2.86
ILGKVILWILHLLLEFYIQYHHSK [C16F] | 2.6

Variant | protein stability index
ILGKVILWILHLLLENYIQYHHSK [C16N] | 3.32
ILGKVILWILHLLLEKYIQYHHSK [C16K] | 3.66
ILGKVILWILHLLLECYIQYHHGK [S23G] | 3.2
ILGKVILWILHLLLECYIQYHHNK [S23N] | 4.27
ILGKVILWILHLLLECYIQYHHWK [S23W] | 3.3
ILGKVILWILHLLLECYIQYHHFK [S23F] | 2.9
ILGKVILWILHLLLECYIQNHHSK [Y20N] | 2.5
ILGKVILWILHLLLECYIQMHHSK [Y20M] | 3.73
ILGKVILWILHLLLECYIQAHHSK [Y20A] | 2.9
ILGKVDLWILHLLLECYIQYHHSK [I6D] | 3.23
ILGKVKLWILHLLLECYIQYHHSK [I6K] | 3.39
ILGKVVLWILHLLLECYIQYHHSK [I6V] | 3.41
ILGKVELWILHLLLECYIQYHHSK [I6E] | 2.55
ILGKVILWICHLLLECYIQYHHSK [L10C] | 1.5
ILGKVILWIVHLLLECYIQYHHSK [L10V] | 2.85
ILGKVILWIAHLLLECYIQYHHSK [L10A] | 2.54
ILGKVILWILHLLLECYLQYHHSK [I18L] | 3.64
ILGKVILWILHLLLECYAQYHHSK [I18A] | 4.65
ILGKVILWILHLLLECYDQYHHSK [I18D] | 2.61
ILGKVILWILHLLLECYSQYHHSK [I18S] | 2.74
ILGKVILWILHLLLECYIQYNHSK [H21N] | 1.95
ILGKVILWILHLLLECYIQYVHSK [H21V] | 3.35
ILGKVILWILHLLLECYIQYSHSK [H21S] | 2.67
ILLKVILWILHLLLECYIQYHHSK [G3L] | 2.76

Variant | protein stability index
ILFKVILWILHLLLECYIQYHHSK [G3F] | 2.9
ILSKVILWILHLLLECYIQYHHSK [G3S] | 1.95
ILEKVILWILHLLLECYIQYHHSK [G3E] | 2.62
ILCKVILWILHLLLECYIQYHHSK [G3C] | 3.41
ILRKVILWILHLLLECYIQYHHSK [G3R] | 3.69
ILHKVILWILHLLLECYIQYHHSK [G3H] | 2.67
ILQKVILWILHLLLECYIQYHHSK [G3Q] | 3.27
ILGKVILWILHLLIECYIQYHHSK [L14I] | 3.72
ILGKVILWILHLLYECYIQYHHSK [L14Y] | 3.51
ILGKVILWILHLLRECYIQYHHSK [L14R] | 2.71
ILGKVILWILHLLKECYIQYHHSK [L14K] | 2.31
ILGKVILWILHLALECYIQYHHSK [L13A] | 3.26
ILGKVILWILHLNLECYIQYHHSK [L13N] | 3.18
ILGKVILWILHLCLECYIQYHHSK [L13C] | 2.76
ILGKVILWILHLDLECYIQYHHSK [L13D] | 2.47
ILGKVILWILHLPLECYIQYHHSK [L13P] | 3.39
ILGKVILWILHLHLECYIQYHHSK [L13H] | 2.83
ILGKVILWILHLLLACYIQYHHSK [E15A] | 3.03
ILGKVILWILHLLLCCYIQYHHSK [E15C] | 2.82
ILGKVILWILHLLLKCYIQYHHSK [E15K] | 2.68
ILGKVILWILHLLLPCYIQYHHSK [E15P] | 3.23
ILGKVILWILHLLLYCYIQYHHSK [E15Y] | 2.69
ILGKVILWILHLLLICYIQYHHSK [E15I] | 3.52
ILGKVILWILHLLLECYIPYHHSK [Q19P] | 2.26

Variant | protein stability index
ILGKVILWILHLLLECYIVYHHSK [Q19V] | 3.16
ILGKVILWILHLLLECYIRYHHSK [Q19R] | 2.9
ILGKVILWILHLLLECYIMYHHSK [Q19M] | 2.97
ILGKVILWILHLLLECYIDYHHSK [Q19D] | 3.64
ILGKVILWILHLLLECYIEYHHSK [Q19E] | 3.03
ILGKVILWILHLLLECYILYHHSK [Q19L] | 4.51
ILGKVILWILHLLLECYIQYHHSR [K24R] | 3.46
ILGKVILWILHLLLECYIQYHHSW [K24W] | 3.65
ILGKVILWILHLLLECYIQYHHSE [K24E] | 3.43
ILGKIILWILHLLLECYIQYHHSK [V5I] | 3.3
ILGKKILWILHLLLECYIQYHHSK [V5K] | 2.08
ILGKRILWILHLLLECYIQYHHSK [V5R] | 2.43
ILGKWILWILHLLLECYIQYHHSK [V5W] | 3.91
ILGKSILWILHLLLECYIQYHHSK [V5S] | 3.18
ILGKHILWILHLLLECYIQYHHSK [V5H] | 2.2
ILGKVICWILHLLLECYIQYHHSK [L7C] | 2.19
ILGKVIRWILHLLLECYIQYHHSK [L7R] | 1.75
ILGKVILWILHYLLECYIQYHHSK [L12Y] | 2.14
ILGKVILWILHFLLECYIQYHHSK [L12F] | 2.47
ILGKVILWILHTLLECYIQYHHSK [L12T] | 3.88
ILGKVILWILHLLLECYIQYHYSK [H22Y] | 3.11
ILGKVILWILHLLLECYIQYHSSK [H22S] | 3.42

Reference: the supplement of paper PMC10567573
